Data published in article PMC4529816 (Molecular cancer therapeutics, 2015).

Target: T1, GAL4^DBD-SIN3B (UniProt O75182 1-1162)
T1 sequence (looked up): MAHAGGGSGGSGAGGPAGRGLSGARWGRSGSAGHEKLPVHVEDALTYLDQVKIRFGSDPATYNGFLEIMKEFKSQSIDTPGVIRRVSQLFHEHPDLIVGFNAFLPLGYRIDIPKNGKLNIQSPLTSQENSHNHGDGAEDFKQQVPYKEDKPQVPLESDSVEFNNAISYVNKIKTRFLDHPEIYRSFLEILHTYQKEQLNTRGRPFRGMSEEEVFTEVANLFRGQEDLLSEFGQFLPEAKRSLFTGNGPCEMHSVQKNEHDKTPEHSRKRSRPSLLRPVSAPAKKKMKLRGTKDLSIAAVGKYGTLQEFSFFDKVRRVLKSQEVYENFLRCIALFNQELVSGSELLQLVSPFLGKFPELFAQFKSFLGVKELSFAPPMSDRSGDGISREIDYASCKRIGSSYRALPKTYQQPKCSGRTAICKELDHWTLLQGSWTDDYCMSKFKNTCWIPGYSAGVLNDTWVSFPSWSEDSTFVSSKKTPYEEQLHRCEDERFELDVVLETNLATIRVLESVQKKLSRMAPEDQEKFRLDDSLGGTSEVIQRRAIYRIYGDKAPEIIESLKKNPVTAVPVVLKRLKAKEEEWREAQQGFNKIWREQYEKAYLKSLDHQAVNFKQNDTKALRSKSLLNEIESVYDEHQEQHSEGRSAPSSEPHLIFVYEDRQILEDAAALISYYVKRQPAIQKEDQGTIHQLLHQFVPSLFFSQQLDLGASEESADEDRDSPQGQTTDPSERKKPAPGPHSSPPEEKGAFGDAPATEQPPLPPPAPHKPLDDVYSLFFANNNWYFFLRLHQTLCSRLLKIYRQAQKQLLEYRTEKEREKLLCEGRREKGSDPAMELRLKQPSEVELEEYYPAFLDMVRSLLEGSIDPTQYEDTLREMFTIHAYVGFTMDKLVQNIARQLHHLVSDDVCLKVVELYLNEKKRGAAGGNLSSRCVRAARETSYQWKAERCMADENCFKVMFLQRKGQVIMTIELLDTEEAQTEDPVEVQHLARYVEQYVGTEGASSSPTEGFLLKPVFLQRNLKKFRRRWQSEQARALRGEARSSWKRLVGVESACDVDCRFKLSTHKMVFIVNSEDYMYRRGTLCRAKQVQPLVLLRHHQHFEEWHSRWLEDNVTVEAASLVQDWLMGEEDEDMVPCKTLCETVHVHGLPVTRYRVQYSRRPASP
Assay: two-hybrid

B1: VP16^AD-MAD (natural protein, UniProt Q05195 1-221, looked up)
chain: MAAAVRMNIQMLLEAADYLERREREAEHGYASMLPYNNKDRDALKRRNKSKKNNSSSRSTHNEMEKNRRAHLRLCLEKLKGLVPLGPESSRHTTLSLLTKAKLHIKKLEDCDRKAVHQIDQLQREQRHLKRQLEKLGIERIRMDSIGSTVSSERSDSDREEIDVDVESTDYLTGDLDWSSSSVSDSDERGSMQSLGSDEGYSSTSIKRIKLQDSHKACLGL
Which “fold decrease in luciferase activity against the empty vectors” value does the source give for B1 here?
Its value is 3.7 fold.
